B1: SNX5 Nm (ssRNA)
RNA: CGCUGAGUGCGCUGCACUGACCUUCUUCCA
modifications: 2'-O-methyl, multiple sites
B2: SEC14L1 Nm (ssRNA)
RNA: ACUGAACGCCUUUAAGUCAGAAUCCCACCC
modifications: 2'-O-methyl at G4, G16, C18, A19, C24, C25, A27

Target: FUBP1-strep (UniProt Q96AE4 1-644)
Test: EMSA; EMSA: 10 mM Tris pH 7.5, 140 mM KCl, 10 mM NaCl, 1 mM MgCl2, 10% glycerol, 1 mM DTT, RNase inhibitor 1 U/ul, room temperature 30 min; probe 20 nM (Fig. 3A) or 10 nM (Fig. 5E, S5D). Pull-down: HepG2 lysate (50 mM Tris pH 7.5, 100 mM NaCl, 1% NP-40, 0.5% deoxycholate) + tRNA 50 ug/ml, RT 30 min then 4 C 90 min; washes 10 mM Tris pH 7.5, 150 mM KCl, 1.5 mM MgCl2, 0.1% NP-40, 0.5 mM DTT
Details: protein: recombinant; tags: C-terminal Strep-tag; label: 5' FAM

Sequence of FUBP1-strep (Q96AE4 whole entry): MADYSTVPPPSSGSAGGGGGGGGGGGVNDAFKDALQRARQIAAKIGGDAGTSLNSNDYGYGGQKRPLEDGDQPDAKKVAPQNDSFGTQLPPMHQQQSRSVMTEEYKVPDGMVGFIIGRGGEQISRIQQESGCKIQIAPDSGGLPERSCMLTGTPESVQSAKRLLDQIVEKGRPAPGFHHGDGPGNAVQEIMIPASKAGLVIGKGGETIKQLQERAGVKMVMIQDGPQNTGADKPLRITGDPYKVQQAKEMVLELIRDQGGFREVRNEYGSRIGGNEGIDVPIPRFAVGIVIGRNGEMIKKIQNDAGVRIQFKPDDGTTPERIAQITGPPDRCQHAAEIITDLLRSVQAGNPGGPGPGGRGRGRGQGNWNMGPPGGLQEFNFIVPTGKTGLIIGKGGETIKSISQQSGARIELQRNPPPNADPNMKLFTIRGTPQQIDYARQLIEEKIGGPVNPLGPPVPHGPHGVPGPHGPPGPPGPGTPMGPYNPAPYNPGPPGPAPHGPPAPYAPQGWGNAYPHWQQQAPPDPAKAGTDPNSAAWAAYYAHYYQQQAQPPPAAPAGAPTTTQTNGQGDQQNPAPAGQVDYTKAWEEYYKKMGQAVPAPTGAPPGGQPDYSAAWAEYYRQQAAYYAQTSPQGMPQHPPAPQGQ

| Binder | binding result |
| --- | --- |
| B1 | binds |
| B2 | binds |
